The source of these data is article PMC9715718.

The target in test [1] is RhlR-ATTO488 (Pseudomonas aeruginosa) (UniProt P54292). The experiment in a line: MST; PqsE diluted 1:1 from 10 µM, RhlR-ATTO488 at 20 nM; 50 mM Tris pH 8.0, 300 mM NaCl, 5% glycerol, 50 µM mBTL, 0.05% Tween; 25 °C.
Test [2] has as its target PqsE (purified, affinity tag removed) (Pseudomonas aeruginosa) (UniProt P20581). Briefly: SEC-MALS; Superdex 200 Increase column in SEC buffer, 40-150 µg of protein applied. Background: SEC sorts molecules by how far they enter the pores of the column.

One may read the Kd as a measure of binding affinity in units of concentration. The low end stands for tighter binding, the high end for weaker binding.

In test [1], “PqsE (purified, affinity tag removed) (from UniProt P20581) (enzyme)” came in with a dissociation constant (Kd) of 146 nM.
As to “RhlR (untagged, co-expressed with His6-PqsE) (from UniProt P54292) (natural protein)”, the stoichiometry N (RhlR per PqsE (2:2 complex)) in test [2] was 1.
